The values below come from article PMC9896067, “Peptide Supramolecular Assembly‐Instructed In Situ Self‐Aggregation for Stratified Targeting Sonodynamic Therapy Enhancement of AIE Luminogens” (Advanced Science, 2022).

Where a SMILES comes first, the peptide text is derived from it. The star is where a group is joined. X1 = O=C(c1cc(OCCCCCC(=O)*)cc(C(=O)c2ccc3ccc4cccc5ccc2c3c45)c1)c1ccc2ccc3cccc4ccc1c2c34

The subject of data set [1] is 4T1 tumor‐bearing mice. As to the kind of experiment: In vivo and ex vivo fluorescence imaging / biodistribution. As to conditions: DIR‐labelled, i.v. 2.4 µmol kg^−1, n = 3; for ex vivo distribution in tumor and major organs: 48 h postinjection. The method, then: For the fluorescence imaging and biodistribution assessment in vivo, DIR‐labelled nanosystem was prepared. Briefly, 2 µL of DIR stock solution (2 mM) was added to 1 mL of the PAHN. After stirring for 12 h, the DIR‐labelled nanosystem was finally obtained after dialyzing against deionized water using a dialysis bag (MWCO: 3500 Da) overnight to remove excess DIR. 4T1 tumor‐bearing mice (n = 3) were intravenously injected with DIR‐labelled (Ex/Em = 748 nm/780 nm) PAHN‐1 or PAHN‐2 at a dose of 2.4 µmol kg^−1. Fluorescence images were acquired at preinjection, and 0, 0.5, 1, 2, 6, 24 and 48 h postinjection by using a fluorescence imaging system (CRi Inc., USA). The tumor tissues and major organs were isolated and obtained for ex vivo imaging on the day of animal sacrifice. The corresponding fluorescence intensities were recorded.

Data set [2] has as its system 4T1 cells. As to the kind of experiment: CCK‐8 viability of 4T1 cells with or without US. As to conditions: for survival of 4T1 cells: without US irradiation, various concentrations. It counts as cell-based, murine. Here is the method: To determine the antitumor efficacy in vitro, the 4T1 cells were divided into the following 6 groups: i) control, ii) control + US, iii) BP + US, iv) PAHN‐3 + US, v) PAHN‐2 + US, and vi) PAHN‐1 + US. Then, the medium were replaced with the fresh medium containing corresponding formulations at different concentrations (30, 60, 120 µM). After 4 h of treatment, the cells were rinsed with PBS and then treated by US at an intensity of 3 W cm^−2 for 4 min. After that, the culture medium was replaced by a fresh serum‐free medium for another 4 h incubation. Finally, a standard CCK‐8 assay was used to evaluate the viability of the cells. The therapeutic effect was also detected by cellular apoptosis assay. In brief, the 4T1 cells were divided into the 6 groups as described above. Next, cells were treated with either BP, PAHN‐3, PAHN‐2, PAHN‐1 at a concentration of 120 µM, or PBS, followed by US irradiation. Finally, these cells were costained by a dye solution of calcein AM (2 µM) and PI (2 µM) or collected for apoptosis analysis using flow cytometry.

Data set [3] has as its system HUVECs. As to the kind of experiment: CCK‐8 cytotoxicity against HUVECs. It counts as cell-based, human. As to conditions: without US.
For data set [4], the system named is inoblast L929. The experiment in a line: CCK‐8 cytotoxicity against L929. Type of data set: cell-based. As to conditions: without US.
For data set [5], the system named is healthy mice. The experiment in a line: Biosafety of PAHN in vivo (H&E, routine blood, blood biochemistry). As to conditions: i.v. 2.4 µmol kg^−1, 1, 3, 7, 14, 28 d postinjection, n = 5. The source says: To investigate the short and long‐term biosafety of PAHN‐1 in vivo, PAHN‐1 at a dose of 2.4 µmol kg^−1 was intravenously injected into twenty five healthy mice that were sacrificed at predetermined time points (1, 3, 7, 14, and 28 d postinjection). Five healthy mice that were administrated with the saline solution served as the control group. The blood samples were then collected for biochemistry and routine blood examination. The main organs were stained with H&E.

For `CC(C)C[C@H](NC(=O)[C@H](CCCCN)NC(=O)[C@H](C)NC(=O)[C@H](CC(C)C)NC(=O)[C@H](CCCCN)NC(=O)[C@H](CC(C)C)NC(=O)[C@@H](NC(=O)[C@H](Cc1ccccc1)NC(=O)[C@H](Cc1ccccc1)NC(=O)[C@H](Cc1ccccc1)NC(=O)[C@H](CS)NC(=O)CCCCCOc1cc(C(=O)c2ccc3ccc4cccc5ccc2c3c45)cc(C(=O)c2ccc3ccc4cccc5ccc2c3c45)c1)C(C)C)C(=O)N[C@@H](C)C(=O)N[C@@H](CCCCN)C(=O)N[C@@H](CC(=O)O)C(=O)N[C@@H](CCC(=O)O)C(=O)N[C@H](C(=O)N[C@@H](CC(=O)O)C(=O)N[C@@H](C)C(=O)N[C@@H](CCCCN)C(=O)N[C@@H](CCCNC(=N)N)C(=O)NCC(=O)N[C@@H](C)C(=O)N[C@@H](CCCNC(=N)N)C(=O)N[C@@H](CO)C(=O)N[C@H](C(=O)N[C@@H](C)C(=O)O)[C@@H](C)O)C(C)C` [PAHN-1] (X1-CFFFVLKLAKLAKDEVDAKRGARSTA-OH), in data set [1], the “ex vivo distribution in tumor and major organs” value is listed as “relatively greater tumor accumulation”; the “time of maximum fluorescence signal of the tumor region” value was 24 h. The cell viability entry in data set [2] (4T1 cells, + US 3 W cm^−2, 4 min after 4 h treatment, 30, 60, 120 µM tested, CCK‐8, n = 3) is on record as “less than 20%”. Moreover, in data set [2] (4T1 cells, without US, concentration of BP up to 120 µM, CCK‐8), the viability of cells result is “higher than 80%”. The “cytotoxicity against HUVECs” value in data set [3] is reported as “negligible cytotoxicity”. The “cytotoxicity against L929” value in data set [4] was “negligible cytotoxicity”. Further, the “hematological indices (routine blood, blood biochemistry)” value in data set [5] (compared to control) is “negligible variations”. In data set [5], the “histopathology of major organs (H&E)” value is reported as “neither significant histopathological changes nor abnormal inflammatory responses”.

Turning to `CC(C)C[C@H](NC(=O)[C@H](CCCCN)NC(=O)[C@H](C)NC(=O)[C@H](CC(C)C)NC(=O)[C@H](CCCCN)NC(=O)[C@H](CC(C)C)NC(=O)[C@@H](NC(=O)[C@H](Cc1ccccc1)NC(=O)[C@H](Cc1ccccc1)NC(=O)[C@H](Cc1ccccc1)NC(=O)[C@H](CS)NC(=O)CCCCCOc1cc(C(=O)c2ccc3ccc4cccc5ccc2c3c45)cc(C(=O)c2ccc3ccc4cccc5ccc2c3c45)c1)C(C)C)C(=O)N[C@@H](C)C(=O)N[C@@H](CCCCN)C(=O)N[C@@H](CC(=O)O)C(=O)N[C@@H](CCC(=O)O)C(=O)N[C@H](C(=O)N[C@@H](CC(=O)O)C(=O)N[C@@H](C)C(=O)N[C@@H](CCCCN)C(=O)N[C@@H](CC(=O)O)C(=O)NCC(=O)N[C@@H](C)C(=O)N[C@@H](CCC(=O)O)C(=O)N[C@@H](CO)C(=O)N[C@@H](Cc1c[nH]cn1)C(=O)N[C@@H](Cc1c[nH]cn1)C(=O)O)C(C)C` [PAHN-2] (X1-CFFFVLKLAKLAKDEVDAKDGAESHH-OH), in data set [1], the “ex vivo distribution in tumor and major organs” value was “tended to accumulate in the liver and spleen”. In addition, in data set [2] (CCK‐8), the “survival of 4T1 cells” value is “no evident change”.

For `CC(C)C[C@H](NC(=O)[C@@H](NC(=O)[C@H](Cc1ccccc1)NC(=O)[C@H](Cc1ccccc1)NC(=O)[C@H](Cc1ccccc1)NC(=O)[C@H](CS)NC(=O)CCCCCOc1cc(C(=O)c2ccc3ccc4cccc5ccc2c3c45)cc(C(=O)c2ccc3ccc4cccc5ccc2c3c45)c1)C(C)C)C(=O)N[C@@H](CCCCN)C(=O)N[C@@H](CCCCN)C(=O)N[C@@H](CCCCN)C(=O)N[C@@H](CC(=O)O)C(=O)N[C@@H](CCC(=O)O)C(=O)N[C@H](C(=O)N[C@@H](CC(=O)O)C(=O)N[C@@H](C)C(=O)N[C@@H](CCCCN)C(=O)N[C@@H](CCCNC(=N)N)C(=O)NCC(=O)N[C@@H](C)C(=O)N[C@@H](CCCNC(=N)N)C(=O)N[C@@H](CO)C(=O)N[C@H](C(=O)N[C@@H](C)C(=O)O)[C@@H](C)O)C(C)C` [PAHN-3] (X1-CFFFVLKKKDEVDAKRGARSTA-OH), the “survival of 4T1 cells” value in data set [2] (CCK‐8) was “no evident change”.
